Source: patent publication US20260055186A1 (REPERTOIRE IMMUNE MEDICINES, published 2026)
Where a chain is given by its changes, count along the chain named.

B1: humanized 02A01-VH2-VK3 (antibody, human IgG1, V domains shown)
VH: EVQLVQSGAEVKKPGATLKISCKASGYTFTDFTMHWVQQAPGKGLEWIGLVNPNNGGNIYNQNFKGRATLTVDTSTSTAYMELSSLRSEDTSVYYCGRVPLYTSHGMDYWGQGTLVTVSS
VL: EIVLTQSPATLSLSPGERATISCRASESVDSYDINSMHWYQQKPGQAPRLLIYRASHLQSGIPARFSGSGSRTDFTLTISSLEPEDFATYYCQQSNEDPLTFGQGTKLEIK
notes: human IgG1 format; also called 02-VH2-VK3
B2: humanized 02A01-VH2-VK4 (antibody, human IgG1, V domains shown)
VH: B1 VH
VL: B1 VL with L13V, R54D, H57N, L58R, Q59A, S60T, L82V
notes: human IgG1 format; also called 02-VH2-VK4
B3: humanized 02A01-VH3-VK4 (antibody, human IgG1, V domains shown)
VH: B1 VH with N61A, Q62E, N63K, K65Q
VL: B1 VL with L13V, R54D, H57N, L58R, Q59A, S60T, L82V
notes: human IgG1 format; also called 02-VH3-VK4
B4: humanized 02A01-VH4-VK1 (antibody, human IgG1, V domains shown)
VH: B1 VH with L18V, N61A, Q62E, N63K, K65Q, S92A
VL: B1 VL with L13V, A47P, L82V
notes: human IgG1 format; also called 02-VH4-VK1
B5: humanized 02A01-VH4-VK2 (antibody, human IgG1, V domains shown)
VH: B1 VH with L18V, N61A, Q62E, N63K, K65Q, S92A
VL: B1 VL with L13V, L82V
notes: human IgG1 format; also called 02-VH4/VK2
B6: humanized 02A01-VH4-VK3 (antibody, human IgG1, V domains shown)
VH: B1 VH with L18V, N61A, Q62E, N63K, K65Q, S92A
VL: B1 VL
notes: human IgG1 format; also called 02-VH4/VK3
B7: humanized 02A01-VH4-VK4 (antibody, human IgG1, V domains shown)
VH: B1 VH with L18V, N61A, Q62E, N63K, K65Q, S92A
VL: B1 VL with L13V, R54D, H57N, L58R, Q59A, S60T, L82V
notes: human IgG1 format; also called 02-VH4-VK4
B8: humanized 02A01-VH6-VK1 (antibody, human IgG1, V domains shown)
VH: B1 VH with L18V, N61A, Q62E, N63K, K65Q, A68V, S92A
VL: B1 VL with L13V, A47P, L82V
notes: human IgG1 format; also called 02-VH6/VK1
B9: humanized 02A01-VH6-VK3 (antibody, human IgG1, V domains shown)
VH: B1 VH with L18V, N61A, Q62E, N63K, K65Q, A68V, S92A
VL: B1 VL
notes: human IgG1 format; also called 02-VH6/VK3
B10: humanized 02A01-VH6-VK4 (antibody, human IgG1, V domains shown)
VH: B1 VH with L18V, N61A, Q62E, N63K, K65Q, A68V, S92A
VL: B1 VL with L13V, R54D, H57N, L58R, Q59A, S60T, L82V
notes: human IgG1 format; also called 02-VH6-VK4
B11: humanized 02A01-VH6-VK2 (antibody, human IgG1, V domains shown)
VH: B1 VH with L18V, N61A, Q62E, N63K, K65Q, A68V, S92A
VL: B1 VL with L13V, L82V
notes: human IgG1 format; also called 02-VH6/VK2
B12: humanized 02A01-VH3-VK3 (antibody, human IgG1, V domains shown)
VH: B1 VH with N61A, Q62E, N63K, K65Q
VL: B1 VL
notes: human IgG1 format; also called 02-VH3/VK3
B13: humanized 02A01-VH1-VK4 (antibody, human IgG1, V domains shown)
VH: B1 VH with A9P, K12V, Q38K, G44S
VL: B1 VL with L13V, R54D, H57N, L58R, Q59A, S60T, L82V
notes: human IgG1 format; also called 02-VH1-VK4
B14: 02A01-IgG-IL12 (HC) (other)
VH: EVQLQQSGPELVKPGASLKISCKASGYTFTDFTMHWVKQSHGKSLEWIGLVNPNNGGNIYNQNFKGKATLTVDTSSSTAYMELRSLTSEDSSVYYCGRVPLYTSHGMDYWGQGTSVTVSS
VL: DIVLTQSPAFLAVSLGQRATISCRASESVDSYDINSMHWYQQKPGQPPKLLIYRASHLQSGIPARFSGSGSRTDFTLTINFVEADDVATYYCQQSNEDPLTFGAGTKLELK
B15: 03A01-IgG-IL12 (HC) (other)
VH: DVQFQESGPGLVKPSQSLSLTCTVTGYSITSDFAWNWIRQFPGNELEWMGYISYSGDTNYNPSLRSRISITRDTSKNQFFLQLDSVTTEDTATYYCTIRGYYTDSAFVFWGQGTLVTVSA
VL: DIQMTQSSSYLSVSLGGRVTITCKASDHINNWLAWYQQKPGNAPRLLISGATSLETGVPSRFTGSGSGLDYTLSITSLQTEDVATYYCQQYWNSPFTFGSGTKLEIK
B16: 02A01-Fab-IL12 (LC) (other)
VH: B14 VH
VL: B14 VL
B17: 03A01-Fab-IL12 (LC) (other)
VH: B15 VH
VL: B15 VL
B18: 02A01-Fab-Fc-IL12 (LC) (other)
VH: B14 VH
VL: B14 VL
B19: 03A01-Fab-Fc-IL12 (LC) (other)
VH: B15 VH
VL: B15 VL

Each binder was assayed against T1, human CD8 on human T cells (human, UniProt P01732 22-235) (assay: flow cytometry on human CD8+ T cells, titration, apparent KD).
T1 construct: whole, on cells; the antibodies were raised against human CD8 alpha; also called CD8 on human CD8+ T cells; hCD8
T1 sequence (P01732 22-235): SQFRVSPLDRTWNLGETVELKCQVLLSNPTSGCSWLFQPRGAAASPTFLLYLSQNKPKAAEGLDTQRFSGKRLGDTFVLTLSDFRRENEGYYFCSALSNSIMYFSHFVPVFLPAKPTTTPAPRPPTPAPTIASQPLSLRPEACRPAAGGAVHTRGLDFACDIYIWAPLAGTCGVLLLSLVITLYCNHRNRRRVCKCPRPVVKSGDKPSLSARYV
Experimental: (§1) The 24 humanized 02A01-derived anti-CD8 antibodies (excluding 02A01-VK3(D30E/N35Q)) were screened for their ability to bind human CD8 by evaluating binding to CD8+ T cells. The non-humanized parent (“02-Parent”) and the non-humanized parent comprising a heavy chain M39L liability mutation (“02-Parent-VH-M39L”) were used as controls. […] Cells were washed with 1×phosphate buffered saline (PBS) containing 1 mg/mL bovine serum albumin (PBS/BSA) and then stained with a 1:100 dilution of DyLight650-conjugated anti-human IgG H+L polyclonal antibody (ThermoFisher cat. no. Sa5-10129) in PBS/BSA. Following a 20-30 min incubation at 4° C., the cells were washed once with PBS/BSA, and then resuspended in PBS/BSA for analysis on a FACSCelesta using Diva software (BD Biosciences). The resulting data were analyzed using FlowJo. Data were quantified and reported as Max fluorescence intensity (MFI) of human IgG-Fc. […] Complete replacement of the HCDR1 (antibodies comprising VH5) eliminated binding to the CD8+ T cells.
(§2) Binding to human CD8+ T cells was tested at 7 serial 5-fold dilutions of each tested humanized 02A01 variant (from 50 nM to 3.2 pM). The resulting data were analyzed using FlowJo.
Binder B1 has a Kd of 0.067 nM.
Binder B2 has a Kd of 0.051 nM.
Binder B3 has a Kd of 0.066 nM.
In the case of B4, the Kd is reported as 0.049 nM.
For B5, the Kd was 0.065 nM.
B6 was tested, and the Kd was 0.089 nM.
For B7, the Kd was 0.059 nM.
In the case of B8, the Kd is reported as 0.058 nM.
B9 was tested, and the Kd was 0.089 nM.
With B10 the Kd was 0.064 nM.
B11 showed a Kd of 0.096 nM.
B12 showed a Kd of 0.09 nM.
Binder B13 has a Kd of 0.051 nM.

What follows are binders tested against T1, human CD8 on human T cells (assay: cell-based or functional assay).
B14 was tested, and the “EC50 of pSTAT4 signaling in human CD8+ T cells” value (“EC50 of pSTAT4 signaling” below) was 3.03 pM.
With B15 the “EC50 of pSTAT4 signaling” value was 15.7 pM.
B16 was tested, and the “EC50 of pSTAT4 signaling” value was 1.74 pM.
In the case of B17, the “EC50 of pSTAT4 signaling” value is reported as 11.1 pM.
With B18 the “EC50 of pSTAT4 signaling” value was 2.11 pM.
In the case of B19, the “EC50 of pSTAT4 signaling” value is reported as 13.4 pM.

The binders below were run against T1, human CD8 on human T cells (assay: flow cytometry on human CD8+ T cells, titration).
Experimental: as §1, §2
For B1, the “Fold Change to Parental Apparent KD” value was 1.18 fold and the “Maximum CD8+ T cell Binding (MFI)” value was 2880 MFI.
For B2, the “Fold Change to Parental Apparent KD” value was 0.89 fold and the “Maximum CD8+ T cell Binding (MFI)” value was 2040 MFI.
In the case of B3, the “Fold Change to Parental Apparent KD” value is reported as 1.16 fold and the “Maximum CD8+ T cell Binding (MFI)” value is reported as 1560 MFI.
For B4, the “Fold Change to Parental Apparent KD” value was 0.86 fold and the “Maximum CD8+ T cell Binding (MFI)” value was 2810 MFI.
With B5 the “Fold Change to Parental Apparent KD” value was 1.14 fold and the “Maximum CD8+ T cell Binding (MFI)” value was 2680 MFI.
For B6, the “Fold Change to Parental Apparent KD” value was 1.56 fold and the “Maximum CD8+ T cell Binding (MFI)” value was 2620 MFI.
In the case of B7, the “Fold Change to Parental Apparent KD” value is reported as 1.04 fold and the “Maximum CD8+ T cell Binding (MFI)” value is reported as 1640 MFI.
For B8, the “Fold Change to Parental Apparent KD” value was 1.02 fold and the “Maximum CD8+ T cell Binding (MFI)” value was 2620 MFI.
For B9, the “Fold Change to Parental Apparent KD” value was 1.51 fold and the “Maximum CD8+ T cell Binding (MFI)” value was 2540 MFI.
With B10 the “Fold Change to Parental Apparent KD” value was 1.12 fold and the “Maximum CD8+ T cell Binding (MFI)” value was 1690 MFI.
For B11, the “Fold Change to Parental Apparent KD” value was 1.68 fold and the “Maximum CD8+ T cell Binding (MFI)” value was 2770 MFI.
For B12, the “Fold Change to Parental Apparent KD” value was 1.58 fold and the “Maximum CD8+ T cell Binding (MFI)” value was 2540 MFI.
In the case of B13, the “Fold Change to Parental Apparent KD” value is reported as 0.89 fold and the “Maximum CD8+ T cell Binding (MFI)” value is reported as 2050 MFI.

These binders were tested against T2, human CD8α/β (human, UniProt P01732 22-182; P10966 22-170) (assay: SPR, antibody captured on Protein A chip, hCD8α/β as analyte, 1:1 fit).
T2 construct: Soluble heterodimer used in SPR and in the Carterra binning (there printed only as CD8α/β); also called hCD8α/β
T2 sequence (P01732 22-182, chain 1 of 2): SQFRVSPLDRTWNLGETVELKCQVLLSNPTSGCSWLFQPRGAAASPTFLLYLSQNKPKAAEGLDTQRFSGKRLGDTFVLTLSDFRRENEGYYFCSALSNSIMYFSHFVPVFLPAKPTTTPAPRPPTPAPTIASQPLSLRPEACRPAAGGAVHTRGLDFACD
T2 sequence (P10966 22-170, chain 2 of 2): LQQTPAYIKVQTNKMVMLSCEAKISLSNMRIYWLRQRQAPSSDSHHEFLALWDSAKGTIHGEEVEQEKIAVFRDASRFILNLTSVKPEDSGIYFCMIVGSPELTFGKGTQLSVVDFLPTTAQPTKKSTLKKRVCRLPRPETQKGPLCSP
Experimental: (§3) The binding affinities of six of the humanized anti-CD8 antibodies to human CD8 were also determined by surface plasmon resonance (SPR). Briefly, equilibrium dissociation constants for human CD8α/β were determined using a real-time SPR biosensor using a Protein A Sensor Chip (Cytiva) to capture purified anti-CD8 monoclonal antibodies at a concentration of 0.5 nM. SPR binding studies were performed in a buffer composed of Phosphate buffered saline, pH 7.2 containing 0.05% v/v Surfactant P20 (PBS-P20 buffer). Different concentrations of hCD8α/β prepared in PBS-P20 running buffer (ranging from 500 nM to 7.8 nM, 2-fold dilutions) were injected over the anti-CD8 monoclonal antibody captured surface. Association of hCD8α/β to the captured monoclonal antibody was monitored for 400 seconds and the dissociation of hCD8α/β in PBS-P20 running buffer was monitored for 600 sec. All of the binding kinetics experiments were performed at 25° C. Kinetic association (kₐ) and dissociation (kd) rate constants were determined by fitting the real-time sensorgrams to a 1:1 binding model using Scrubber 2.0c curve fitting software.
With B5 the Kd was 19.5 nM.
B6 was tested, and the Kd was 19.8 nM.
Binder B8 has a Kd of 15.9 nM.
B9 gave a Kd of 19.6 nM.
Binder B11 has a Kd of 16.6 nM.
For B12, the Kd was 22 nM.

Each binder was assayed against T2, human CD8α/β (assay: SPR, antibody captured on Protein A chip, hCD8α/β as analyte).
Experimental: as §3
B5 was tested, and the “Fold Change to Parental Calculated KD” value was 2.1 fold.
For B6, the “Fold Change to Parental Calculated KD” value was 2.13 fold.
With B8 the “Fold Change to Parental Calculated KD” value was 1.71 fold.
With B9 the “Fold Change to Parental Calculated KD” value was 2.12 fold.
B11 was tested, and the “Fold Change to Parental Calculated KD” value was 1.79 fold.
B12 was tested, and the “Fold Change to Parental Calculated KD” value was 2.37 fold.
